{"source": "the supplement of paper PMC5998384", "key": {"HeLa Kyoto [1]": {"test_system": "HeLa Kyoto", "experiment": "melting temperature (median over replicates), in situ; higher = more thermally stable"}, "HeLa Kyoto [2]": {"test_system": "HeLa Kyoto", "experiment": "thermal stability score vs G1/S (z-score of summed log2 fold changes over temperatures); higher = more thermally stable than in G1/S"}, "HeLa Kyoto [3]": {"test_system": "HeLa Kyoto", "experiment": "solubility change mitosis vs G1/S (difference of NP-40 vs SDS log2 ratios) (log2 ratio difference); higher = more soluble in mitosis"}, "HeLa Kyoto [4]": {"test_system": "HeLa Kyoto", "experiment": "solubility in G1/S (NP-40 vs SDS abundance) (log2 ratio); higher = more soluble", "conditions": "cell cycle stage: G1/S"}, "[5]": {"conditions": "cell cycle stage: early G1 (4.5 h after nocodazole release)"}}, "data": [{"sequence": "MEPGPDGPAASGPAAIREGWFRETCSLWPGQALSLQVEQLLHHRRSRYQDILVFRSKTYGNVLVLDGVIQCTERDEFSYQEMIANLPLCSHPNPRKVLIIGGGDGGVLREVVKHPSVESVVQCEIDEDVIQVSKKFLPGMAIGYSSSKLTLHVGDGFEFMKQNQDAFDVIITDSSDPMGPAESLFKESYYQLMKTALKEDGVLCCQGECQWLHLDLIKEMRQFCQSLFPVVAYAYCTIPTYPSGQIGFMLCSKNPSTNFQEPVQPLTQQQVAQMQLKYYNSDVHRAAFVLPEFARKALNDVS [SRM]", "values": [{"measurement": "melting temperature", "setting": "HeLa Kyoto [1]; cell cycle stage: G1/S", "value": 51.8, "unit": "°C"}, {"measurement": "melting temperature", "setting": "HeLa Kyoto [1]; cell cycle stage: mitosis", "value": 51.9, "unit": "°C"}, {"measurement": "thermal stability score", "setting": "HeLa Kyoto [2]; [5]", "value": 0.149}, {"measurement": "thermal stability score", "setting": "HeLa Kyoto [2]; cell cycle stage: mitosis", "value": 0.82}, {"measurement": "solubility change mitosis (log2)", "setting": "HeLa Kyoto [3]", "value": -0.232}, {"measurement": "solubility in G1/S (log2)", "setting": "HeLa Kyoto [4]", "value": 0.283}]}, {"sequence": "MSRYLRPPNTSLFVRNVADDTRSEDLRREFGRYGPIVDVYVPLDFYTRRPRGFAYVQFEDVRDAEDALHNLDRKWICGRQIEIQFAQGDRKTPNQMKAKEGRNVYSSSRYDDYDRYRRSRSRSYERRRSRSRSFDYNYRRSYSPRNSRPTGRPRRSRSHSDNDRFKHRNRSFSRSKSNSRSRSKSQPKKEMKAKSRSRSASHTKTRGTSKTDSKTHYKSGSRYEKESRKKEPPRSKSQSRSQSRSRSKSRSRSWTSPKSSGH [SRSF10]", "values": [{"measurement": "melting temperature", "setting": "HeLa Kyoto [1]; cell cycle stage: G1/S", "value": 49.7, "unit": "°C"}, {"measurement": "melting temperature", "setting": "HeLa Kyoto [1]; cell cycle stage: mitosis", "value": 50.2, "unit": "°C"}, {"measurement": "thermal stability score", "setting": "HeLa Kyoto [2]; [5]", "value": 0.817}, {"measurement": "thermal stability score", "setting": "HeLa Kyoto [2]; cell cycle stage: mitosis", "value": -0.653}, {"measurement": "solubility change mitosis (log2)", "setting": "HeLa Kyoto [3]", "value": 0.534}, {"measurement": "solubility in G1/S (log2)", "setting": "HeLa Kyoto [4]", "value": -0.696}]}, {"sequence": "MDREERKTINQGQEDEMEIYGYNLSRWKLAIVSLGVICSGGFLLLLLYWMPEWRVKATCVRAAIKDCEVVLLRTTDEFKMWFCAKIRVLSLETYPVSSPKSMSNKLSNGHAVCLIENPTEENRHRISKYSQTESQQIRYFTHHSVKYFWNDTIHNFDFLKGLDEGVSCTSIYEKHSAGLTKGMHAYRKLLYGVNEIAVKVPSVFKLLIKEVLNPFYIFQLFSVILWSTDEYYYYALAIVVMSIVSIVSSLYSIRKQYVMLHDMVATHSTVRVSVCRVNEEIEEIFSTDLVPGDVMVIPLNGTIMPCDAVLINGTCIVNESMLTGESVPVTKTNLPNPSVDVKGIGDELYNPETHKRHTLFCGTTVIQTRFYTGELVKAIVVRTGFSTSKGQLVRSILYPKPTDFKLYRDAYLFLLCLVAVAGIGFIYTIINSILNEVQVGVIIIESLDIITITVPPALPAAMTAGIVYAQRRLKKIGIFCISPQRINICGQLNLVCFDKTGTLTEDGLDLWGIQRVENARFLSPEENVCNEMLVKSQFVACMATCHSLTKIEGVLSGDPLDLKMFEAIGWILEEATEEETALHNRIMPTVVRPPKQLLPESTPAGNQEMELFELPATYEIGIVRQFPFSSALQRMSVVARVLGDRKMDAYMKGAPEAIAGLCKPETVPVDFQNVLEDFTKQGFRVIALAHRKLESKLTWHKVQNISRDAIENNMDFMGLIIMQNKLKQETPAVLEDLHKANIRTVMVTGDSMLTAVSVARDCGMILPQDKVIIAEALPPKDGKVAKINWHYADSLTQCSHPSAIDPEAIPVKLVHDSLEDLQMTRYHFAMNGKSFSVILEHFQDLVPKLMLHGTVFARMAPDQKTQLIEALQNVDYFVGMCGDGANDCGALKRAHGGISLSELEASVASPFTSKTPSISCVPNLIREGRAALITSFCVFKFMALYSIIQYFSVTLLYSILSNLGDFQFLFIDLAIILVVVFTMSLNPAWKELVAQRPPSGLISGALLFSVLSQIIICIGFQSLGFFWVKQQPWYEVWHPKSDACNTTGSGFWNSSHVDNETELDEHNIQNYENTTVFFISSFQYLIVAIAFSKGKPFRQPCYKNYFFVFSVIFLYIFILFIMLYPVASVDQVLQIVCVPYQWRVTMLIIVLVNAFVSITVEESVDRWGKCCLPWALGCRKKTPKAKYMYLAQELLVDPEWPPKPQTTTEAKALVKENGSCQIITIT [ATP13A3]", "values": [{"measurement": "melting temperature", "setting": "HeLa Kyoto [1]; cell cycle stage: G1/S", "value": 54.3, "unit": "°C"}, {"measurement": "melting temperature", "setting": "HeLa Kyoto [1]; cell cycle stage: mitosis", "value": 53.9, "unit": "°C"}, {"measurement": "thermal stability score", "setting": "HeLa Kyoto [2]; [5]", "value": -0.654}, {"measurement": "thermal stability score", "setting": "HeLa Kyoto [2]; cell cycle stage: mitosis", "value": -0.884}, {"measurement": "solubility change mitosis (log2)", "setting": "HeLa Kyoto [3]", "value": -0.0406}, {"measurement": "solubility in G1/S (log2)", "setting": "HeLa Kyoto [4]", "value": -0.205}]}, {"sequence": "MEKTQETVQRILLEPYKYLLQLPGKQVRTKLSQAFNHWLKVPEDKLQIIIEVTEMLHNASLLIDDIEDNSKLRRGFPVAHSIYGIPSVINSANYVYFLGLEKVLTLDHPDAVKLFTRQLLELHQGQGLDIYWRDNYTCPTEEEYKAMVLQKTGGLFGLAVGLMQLFSDYKEDLKPLLNTLGLFFQIRDDYANLHSKEYSENKSFCEDLTEGKFSFPTIHAIWSRPESTQVQNILRQRTENIDIKKYCVHYLEDVGSFEYTRNTLKELEAKAYKQIDARGGNPELVALVKHLSKMFKEENE [GGPS1]", "values": [{"measurement": "melting temperature", "setting": "HeLa Kyoto [1]; cell cycle stage: G1/S", "value": 55.2, "unit": "°C"}, {"measurement": "melting temperature", "setting": "HeLa Kyoto [1]; cell cycle stage: mitosis", "value": 56, "unit": "°C"}, {"measurement": "thermal stability score", "setting": "HeLa Kyoto [2]; [5]", "value": -1.73}, {"measurement": "thermal stability score", "setting": "HeLa Kyoto [2]; cell cycle stage: mitosis", "value": -1.98}, {"measurement": "solubility change mitosis (log2)", "setting": "HeLa Kyoto [3]", "value": -0.0913}, {"measurement": "solubility in G1/S (log2)", "setting": "HeLa Kyoto [4]", "value": 0.163}]}, {"sequence": "MAVARLAAVAAWVPCRSWGWAAVPFGPHRGLSVLLARIPQRAPRWLPACRQKTSLSFLNRPDLPNLAYKKLKGKSPGIIFIPGYLSYMNGTKALAIEEFCKSLGHACIRFDYSGVGSSDGNSEESTLGKWRKDVLSIIDDLADGPQILVGSSLGGWLMLHAAIARPEKVVALIGVATAADTLVTKFNQLPVELKKEVEMKGVWSMPSKYSEEGVYNVQYSFIKEAEHHCLLHSPIPVNCPIRLLHGMKDDIVPWHTSMQVADRVLSTDVDVILRKHSDHRMREKADIQLLVYTIDDLIDKLSTIVN [ABHD10]", "values": [{"measurement": "melting temperature", "setting": "HeLa Kyoto [1]; cell cycle stage: G1/S", "value": 57.4, "unit": "°C"}, {"measurement": "melting temperature", "setting": "HeLa Kyoto [1]; cell cycle stage: mitosis", "value": 57.6, "unit": "°C"}, {"measurement": "thermal stability score", "setting": "HeLa Kyoto [2]; [5]", "value": 1.29}, {"measurement": "thermal stability score", "setting": "HeLa Kyoto [2]; cell cycle stage: mitosis", "value": -0.803}, {"measurement": "solubility change mitosis (log2)", "setting": "HeLa Kyoto [3]", "value": -0.147}, {"measurement": "solubility in G1/S (log2)", "setting": "HeLa Kyoto [4]", "value": 0.191}]}]}
